19 molecules from patent publication US20250206799A1 (KEROS THERAPEUTICS, published 2025) can be followed below.

Substitutions are numbered along the chain they refer to.

Sequences and labels used below:
B1: Activin B (ligand, UniProt P09529 293-407, looked up)
chain: GLECDGRTNLCCRQQFFIDFRLIGWNDWIIAPTGYYGNYCEGSCPAYLAGVPGSASSFHTAVVNQYRMRGLNPGTVNSCCIPTKLSTMSMLYFDDEYNIVKRDVPNMIVEECGCA
B2: BMP-9 (ligand, UniProt Q9UK05 320-429, looked up)
chain: SAGAGSHCQKTSLRVNFEDIGWDSWIIAPKEYEAYECKGGCFFPLADDVTPTKHAIVQTLVHLKFPTKVGKACCVPTKLSPISVLYKDDMGVPTLKYHYEGMSVAECGCR
notes: also called bone morphogenetic protein 9
B3: Activin A (ligand, UniProt P08476 311-426, looked up)
chain: GLECDGKVNICCKKQFFVSFKDIGWNDWIIAPSGYHANYCEGECPSHIAGTSGSSLSFHSTVINHYRMRGHSPFANLKSCCVPTKLRPMSMLYYDDGQNIIKKDIQNMIVEECGCS
B4: ActRIIB 2.11 (SEQ ID NO: 14)-Fc (Fc fusion, not shown: a dimerising Fc or GST)
chain: GRGEAETRECLYYNANWELERTNQSGVERCEGEKDKRLHCYASWRNSSGSLEIVKKGCWLDDFNCYDRTDCVATKENPQVYFCCCEGNMCNERFTHLPEAGGPEVTYEPPPTAPT
notes: also called ActRIIB 2.11 variant; ActRIIB 2.11-Fc
B5: ActRIIB 2.12 (SEQ ID NO: 15)-Fc (Fc fusion, not shown: a dimerising Fc or GST)
chain: B4 chain with T69D, D70T
notes: also called ActRIIB 2.12 variant; ActRIIB 2.12-Fc
B6: extracellular ActRIIB variant ActRIIB 2.01 (SEQ ID NO: 4) fused to the N-terminus of hFc through a GGG linker (Fc fusion)
chain: GRGEAETRECIYYNANWELERTNQSGLERCEGEQDKRLHCYASWRNSSGTIELVKKGCWLDDFNCYDRQECVAKKDSPEVYFCCCEGNFCNERFTHLPEAGGPEVTYEPPPTAPTGGG
notes: also called ActRIIB 2.01 variant; not shown: hFc
B7: extracellular ActRIIB variant ActRIIB 2.04 (SEQ ID NO: 7) fused to the N-terminus of hFc through a GGG linker (Fc fusion)
chain: B6 chain with R29P
notes: also called ActRIIB 2.04 variant; not shown: hFc
B8: extracellular ActRIIB variant ActRIIB/A (SEQ ID NO: 2) fused to the N-terminus of hFc through a GGG linker (Fc fusion)
chain: GRGEAETRECIFYNANWEKDRTNQSGLEPCYGDQDKRRHCFASWKNSSGTIELVKQGCWLDDINCYDRQECVAKKDSPEVYFCCCEGNFCNERFTHLPEAGGPEVTYEPPPTAPTGGG
notes: also called ActRIIB/A variant; not shown: hFc
B9: extracellular ActRIIB variant ActRIIBΔ9 (SEQ ID NO: 3) fused to the N-terminus of hFc through a GGG linker (Fc fusion)
chain: B6 chain with E20D, F63I, K74T, D76E, S77N, E79Q
notes: also called ActRIIBΔ9 variant; not shown: hFc
B10: extracellular ActRIIB variant ActRIIB 2.07 (SEQ ID NO: 10) fused to the N-terminus of hFc through a GGG linker (Fc fusion)
chain: B6 chain with Y12F, L19K, E20D
notes: also called ActRIIB 2.07 variant; not shown: hFc
B11: extracellular ActRIIB variant ActRIIB 2.02 (SEQ ID NO: 5) fused to the N-terminus of hFc through a GGG linker (Fc fusion)
chain: B6 chain with S25T, S47I
notes: also called ActRIIB 2.02 variant; not shown: hFc
B12: extracellular ActRIIB variant ActRIIB 2.08 (SEQ ID NO: 11) fused to the N-terminus of hFc through a GGG linker (Fc fusion)
chain: B6 chain with E31Y, E33D, L38R
notes: also called ActRIIB 2.08 variant; not shown: hFc
B13: extracellular ActRIIB variant ActRIIB 2.05 (SEQ ID NO: 8) fused to the N-terminus of hFc through a GGG linker (Fc fusion)
chain: B6 chain with E31Y, E33D, Q34K
notes: also called ActRIIB 2.05 variant; not shown: hFc
B14: extracellular ActRIIB variant ActRIIB 2.03 (SEQ ID NO: 6) fused to the N-terminus of hFc through a GGG linker (Fc fusion)
chain: B6 chain with S25T, S47I, S48T
notes: also called ActRIIB 2.03 variant; not shown: hFc
B15: extracellular ActRIIB variant ActRIIB 2.06 (SEQ ID NO: 9) fused to the N-terminus of hFc through a GGG linker (Fc fusion)
chain: B6 chain with Y41F, R45K, K56Q
notes: also called ActRIIB 2.06 variant; not shown: hFc
B16: extracellular ActRIIA (SEQ ID NO: 16) fused to the N-terminus of hFc through a GGG linker (Fc fusion)
chain: AILGRSETQECLFFNANWEKDRTNQTGVEPCYGDKDKRRHCFATWKNISGSIEIVKQGCWLDDINCYDRTDCVEKKDSPEVYFCCCEGNMCNEKFSYFPEMEVTQPTSGGG
notes: also called ActRIIA-Fc; not shown: hFc
B17: extracellular ActRIIB variant ActRIIB 2.09 (SEQ ID NO: 12) fused to the N-terminus of hFc through a GGG linker (Fc fusion)
chain: GRGEAETRECLYYNANWELERTNQSGVERCEGEKDKRLHCYASWRNSSGSLEIVKKGCWLDDFNCYDRTDCVATEENPQVYFCCCEGNMCNERFTHLPEAGGPEVTYEPPPTAPTGGG
notes: also called ActRIIB 2.09 variant; not shown: hFc
B18: extracellular ActRIIB variant ActRIIB 2.10 (SEQ ID NO: 13) fused to the N-terminus of hFc through a GGG linker (Fc fusion)
chain: B17 chain with T69D, D70T
notes: also called ActRIIB 2.10 variant; not shown: hFc
B19: growth differentiation factor 11 (GDF11) (ligand, UniProt O95390 299-407, looked up)
chain: NLGLDCDEHSSESRCCRYPLTVDFEAFGWDWIIAPKRYKANYCSGQCEYMFMQKYPHTHLVQQANPRGSAGPCCTPTKMSPINMLYFNDKQQIIYGKIPGMVVDRCGCS

In the first experiment the target is T1, extracellular ActRIIB (SEQ ID NO: 17) fused to the N-terminus of hFc through a GGG linker (human, UniProt Q13705 20-134).
T1 construct: also called ActRIIB-Fc; not shown: hFc
T1 sequence: B6 chain with K74T, K75E, D76E, S77N, E79Q
Nature of the experiment: SPR (Biacore 3000), ActRII-Fc captured by anti-Fc antibody, ligand in solution.
Settings: not given
From the text: (§1) The GE Biacore 3000 was used to measure the kinetics of the interactions between the ActRIIB-Fc variants and the ligands Activin A, Activin B, growth differentiation factor 11 (GDF11), and BMP-9. ActRIIA, ActRIIB, ActRIIB 2.06, ActRIIB 2.11 and ActRIIB 2.12 were recombinant proteins. All other ActRIIB-Fc variants were expressed by transient expression in HEK293 cells and purified from the conditioned media using Protein-A Sepharose chromatography. Flow cells 1-4 were immobilized with anti-human/anti-mouse capture antibodies from GE using the amine coupling kit. The ActRII-Fc proteins were then captured on the chip in flow cells 2-4, with flow cell 1 being left empty as a reference cell to measure and subtract any nonspecific binding. HBS-EP+ buffer from GE Healthcare™ was used as a running buffer. Each ligand was run in a duplicate concentration series at 40 μl/min to avoid mass transport effects. All data was collected on a CM-5 chip except for GDF-11, which used CM-4. The data was analyzed using Scrubber2 by BioLogic™ Software to calculate the KD of each interaction (Table 3).
A general note: Surface plasmon resonance follows binding to a sensor surface in real time, without labels.
The Kd is the constant that tells how readily two partners part at equilibrium. A high value points to a looser complex. Regarding B1, the affinity, expressed as Kd, was 0.023 nM.
The same measure, in the same setting: under B2 stands 0.28 nM.
B3 had a dissociation constant (Kd) of 0.063 nM.

The next experiment addresses B1. The description is as above.
Settings: not given
From the text: as §1
For the molecule B4, the dissociation constant Kd turned out to be 0.37 nM.
Still for that read-out and setting: under B5 stands 0.16 nM.
Consider B6, for which the binding result was “no binding”.
In the case of B7, the binding result is recorded as “no binding”.
Regarding B8, the binding result is listed as “no binding”.
Regarding B9, the dissociation constant Kd came to 400 nM.
For B10, the binding result is listed as “no binding”.
The same measure, in the same setting: for B11 the value was “no binding”.
As to B12, the binding result is given as “no binding”.
The same measure, in the same setting: for B13 the value was “no binding”.
With B14, the binding result is “no binding”.
For B15, the equilibrium dissociation constant (Kd) amounted to 0.1 nM.
B16: binding was characterised by a dissociation constant (Kd) of 0.37 nM.
Still for that read-out and setting: for B17 the value was 0.16 nM.
The same measure, in the same setting: for B18 the value was 0.28 nM.

For another experiment, the target named is B3. The experiment is described as above.
Settings: not given
From the text: as §1
B4 displayed a Kd of 0.78 nM.
Same read-out and setting: under B5 stands 0.14 nM.
As to B6, the binding result is recorded as “no binding”.
Still for that read-out and setting: for B7 the value was “no binding”; for B8, “no binding”.
Consider B9, for which the Kd worked out at 390 nM.
For the molecule B10, the binding result was “no binding”.
Consider B11, for which the binding result was “no binding”.
As for B12, the binding result is recorded as “no binding”.
Same read-out and setting: under B13 stands “no binding”; under B14, “no binding”.
The molecule B15 came in with a dissociation constant (Kd) of 0.053 nM.
Consider B16, for which the Kd is 1 nM.
Still for that read-out and setting: under B17 stands 0.1 nM.
The same measure, in the same setting: under B18 stands 0.45 nM.

The next experiment concerns the target B2. The experiment is described as above.
Settings: not given
From the text: as §1
B4 yielded a Kd of 2.7 nM.
The molecule B5 returned a Kd of 31 nM.
Consider B6, for which the binding result is “no binding”.
In the case of B7, the binding result is on record as “no binding”.
For the molecule B9, the affinity, expressed as Kd, was 28 nM.
In the case of B10, the binding result is recorded as “no binding”.
The same measure, in the same setting: under B11 stands “no binding”; under B12, “no binding”.
The same measure, in the same setting: under B13 stands “no binding”.
Regarding B14, the binding result is on record as “no binding”.
Take B15: the Kd was 0.3 nM.
The same measure, in the same setting: under B17 stands 0.44 nM.
Molecule B18 had a dissociation constant (Kd) of 1.7 nM.

A further experiment addresses B16. Described as above.
Settings: not given
From the text: as §1
B2 came in with a dissociation constant (Kd) of 25 nM.

For the next experiment, the target named is B19. Nature of the experiment: SPR (Biacore 3000), ActRII-Fc captured by anti-Fc antibody, ligand in solution, CM-4 chip.
Settings: not given
From the text: as §1
Take B4: binding was characterised by a dissociation constant (Kd) of 0.24 nM.
Still for that read-out and setting: under B5 stands 0.13 nM.
As to B6, the binding result is reported as “no binding”.
With B7, the binding result was “no binding”.
On the same count and under the same terms, for B8 the value was “no binding”.
Consider B9, for which the dissociation constant (Kd) is 530 nM.
B10: the binding result is “no binding”.
Still for that read-out and setting: for B11 the value was “no binding”; for B12, “no binding”.
The same measure, in the same setting: for B13 the value was “no binding”.
In the case of B14, the binding result is reported as “no binding”.
The molecule B15 yielded a dissociation constant (Kd) of 0.027 nM.

Another experiment has as its target T1, extracellular ActRIIB (SEQ ID NO: 17) …. The description is as above.
Settings: not given
From the text: as §1
On to B19, for which the affinity, expressed as Kd, was 0.12 nM.

The next experiment deals with B16. The description is as above.
Settings: not given
From the text: as §1
Take B19: the affinity, expressed as Kd, was 0.081 nM.

The next experiment has as its target T2, BMP-9, Q9UK05.
T2 chain: B2 chain
In words: SPR (Biacore 3000), ActRII-Fc captured by anti-Fc antibody, ligand in solution. The conditions noted are these: remark: other sources report otherwise.
With B8, the Kd was 88 nM.
